Results published in patent US5688640A, “Methods of screening of effectors of endothelin converting enzyme-1” (Board of Regents, The University of Texas System, priority 1994, dated 1997).

Experiments:
ECE-1 [1] = molecular target: T1, ECE-1 (Bos taurus, UniProt P42891); assay: Secretion of big and mature ET-1 by preproET-1-transfected CHO/ECE-1 cells (conversion of endogenous big ET-1); format: cell-based, bovine; settings: preproET-1-transfected CHO/ECE-1 cells
T1 construct: The entire coding regions from bovine ECE-1; made in house
T1 sequence (P42891 with tags, fused parts or gaps A87G/A695G limits assumed): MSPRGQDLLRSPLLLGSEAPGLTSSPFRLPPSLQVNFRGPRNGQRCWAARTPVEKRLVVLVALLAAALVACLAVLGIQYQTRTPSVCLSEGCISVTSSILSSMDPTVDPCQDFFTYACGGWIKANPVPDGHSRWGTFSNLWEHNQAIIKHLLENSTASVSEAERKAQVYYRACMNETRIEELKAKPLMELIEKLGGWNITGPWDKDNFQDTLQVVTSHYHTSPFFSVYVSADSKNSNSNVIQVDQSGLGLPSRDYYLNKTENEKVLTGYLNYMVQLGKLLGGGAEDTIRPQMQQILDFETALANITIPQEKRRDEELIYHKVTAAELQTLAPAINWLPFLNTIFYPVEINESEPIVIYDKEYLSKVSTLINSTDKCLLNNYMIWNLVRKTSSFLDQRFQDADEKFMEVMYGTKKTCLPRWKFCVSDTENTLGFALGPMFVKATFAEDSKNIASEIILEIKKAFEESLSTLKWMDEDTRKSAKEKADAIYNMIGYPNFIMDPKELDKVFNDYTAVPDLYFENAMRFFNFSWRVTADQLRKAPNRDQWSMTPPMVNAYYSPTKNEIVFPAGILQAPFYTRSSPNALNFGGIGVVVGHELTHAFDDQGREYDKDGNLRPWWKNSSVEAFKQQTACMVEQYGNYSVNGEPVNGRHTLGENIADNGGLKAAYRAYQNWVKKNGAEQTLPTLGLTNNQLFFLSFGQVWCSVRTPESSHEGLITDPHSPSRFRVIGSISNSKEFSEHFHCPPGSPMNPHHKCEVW
Method: Transient transfection of the preproET-1 cDNA was performed by the DEAE-dextran method as described (Sakurai et al., 1990). Twelve hours after transfection, cells were refed with fresh medium with or without ECE inhibitors. The medium was conditioned for an additional 12 hours and directly subjected to EIA for mature and big ET-1 (Suzuki et al., 1990; Suzuki et al., 1989). For the Ca^2+ transient bioassay (see below), Phenol Red-free CHO-SFM medium (Gibco/BRL) without serum was used in order to avoid artefacts induced by serum and the dye.
To examine whether the expressed ECE-1 can convert big ET-1 in intact cells, paired cultures of CHO/ECE-1 cells and untransfected CHO cells were transiently transfected with the preproET-1 construct. After the transient transfection, the amounts of mature and big ET-1 secreted into the medium were measured by EIA. […] The functional authenticity of the immunoreactive mature peptide produced from the double-transfected cells was examined with a bioassay system that uses another line of CHO cells expressing human ETA receptors as reporter cells. […] The cells were loaded with the Ca^2+ indicator Fura-2/AM, and directly challenged with serum-free, Phenol Red-free culture supernatants from the aforementioned double-transfection protocols. […] Next the supernatants from the preproET-1-transfected CHO/ECE-1 cells were added, so that the final concentration of ET-1 as measured by EIA was ≈20 pM.

[2] = ET-1(1-20) and ET-1(1-22) relative to authentic ET-1(1-21); cited from earlier work
NEP = settings: cited from earlier work
ECE-1 [3] = molecular target: T1, ECE-1; assay: pH profile of ECE-1 activity in solubilized CHO/ECE-1 membranes; format: biochemical, bovine
Method: FIG. 2C. pH profile of ECE-1 activity expressed in solubilized CHO/ECE-1 membranes.
Reaction mixtures for ECE assay (50 μl) contained 0.1M sodium phosphate buffer (pH 6.8), 0.5M NaCl, 0.1 μM human big ET-1(1-38) and enzyme fraction. For some studies, the reactions were preincubated at 37° C. with various protease inhibitors for 15 minutes prior to the addition of big ET-1. The reactions were incubated at 37° C. for 30 min in siliconized 0.5-ml microcentrifuge tubes. […] Duplicate assay wells were used for each enzyme reaction. Protein concentration was determined by the Bradford method (Bio-Rad) using IgG as standard.

mature ET-1: 21-residue mature peptide; human ET-1(1-21) obtained from American Peptides
concentration secreted in culture supernatant (ECE-1 [1]): 241 pM | vasoconstrictor/biological activity (in words) [2]: the most potent vasoconstrictor substance known | degradation by NEP (in words) (NEP): rapidly degrades

B1: ECE-1: novel 758-amino acid polypeptide, bovine endothelin converting enzyme-1 (protein, UniProt P42891 1-754, looked up)
chain: MMSTYKRATLDEEDLVDSLSESDVYPNHLQVNFRGPRNGQRCWAARTPVEKRLVVLVALLAAALVACLAVLGIQYQTRTPSVCLSEACISVTSSILSSMDPTVDPCQDFFTYACGGWIKANPVPDGHSRWGTFSNLWEHNQAIIKHLLENSTASVSEAERKAQVYYRACMNETRIEELKAKPLMELIEKLGGWNITGPWDKDNFQDTLQVVTSHYHTSPFFSVYVSADSKNSNSNVIQVDQSGLGLPSRDYYLNKTENEKVLTGYLNYMVQLGKLLGGGAEDTIRPQMQQILDFETALANITIPQEKRRDEELIYHKVTAAELQTLAPAINWLPFLNTIFYPVEINESEPIVIYDKEYLSKVSTLINSTDKCLLNNYMIWNLVRKTSSFLDQRFQDADEKFMEVMYGTKKTCLPRWKFCVSDTENTLGFALGPMFVKATFAEDSKNIASEIILEIKKAFEESLSTLKWMDEDTRKSAKEKADAIYNMIGYPNFIMDPKELDKVFNDYTAVPDLYFENAMRFFNFSWRVTADQLRKAPNRDQWSMTPPMVNAYYSPTKNEIVFPAGILQAPFYTRSSPNALNFGGIGVVVGHELTHAFDDQGREYDKDGNLRPWWKNSSVEAFKQQTACMVEQYGNYSVNGEPVNGRHTLGENIADNGGLKAAYRAYQNWVKKNGAEQTLPTLGLTNNQLFFLSFAQVWCSVRTPESSHEGLITDPHSPSRFRVIGSISNSKEFSEHFHCPPGSPMNPHHKCEVW
modifications: full-length
optimal pH of ECE activity (ECE-1 [3]): 6.8
